In patent US20140249084A1, “PTH-CONTAINING THERAPEUTIC/PROPHYLACTIC AGENT FOR OSTEOPOROSIS, CHARACTERIZED IN THAT PTH IS ADMINISTERED ONCE A WEEK IN A UNIT DOSE OF 100 TO 200 UNITS” (ASAHI KASEI PHARMA CORPORATION, priority 2009, published 2014):

Settings: in vivo
Description: The serum calcium was measured at the start, after 12 weeks, after 24 weeks, after 48 weeks, and after 72 weeks. Serum calcium standard value: 8.4 to 10.4 mg/dL. The standard concomitant drug (610 mg of calcium, 400 IU of vitamin D3, and 30 mg of magnesium) was taken once a day after dinner from the time of consent to the end of the trial.

Question: What does the source list for teriparatide acetate?
Answer: Corrected serum calcium, Max: 10.0 mg/dL; Manifestation of hypercalcemia or hypercalciuria: No manifestation of hypercalcemia or hypercalciuria was found; Patients with serum calcium exceeding 11.0 mg/mL: not even one patient; Safety in terms of the serum calcium across renal function groups: equivalent safety in terms of the serum calcium in all groups
